For orientation: Kd means the constant that tells how readily two partners part at equilibrium. Low values mean higher affinity, high ones lower affinity. By koff is commonly meant the first-order rate constant of dissociation. A low value points to slow dissociation. As usually defined, the kon is the second-order rate constant of association. The low end stands for slower complex formation, the high end for faster complex formation.

We go through one molecule from PMC6726503.

In this assay the target is T1, human TGF-β2 (human).
T1 sequence (P61812 303-414, looked up): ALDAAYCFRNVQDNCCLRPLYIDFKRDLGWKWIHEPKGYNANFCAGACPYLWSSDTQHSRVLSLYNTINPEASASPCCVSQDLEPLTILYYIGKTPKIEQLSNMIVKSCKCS
As to the kind of experiment: SPR. In general terms: In SPR one partner is held on a chip, and binding of the other changes the refractive index at the surface.

B1: full-length rat betaglycan ectodomain (domain or fragment)
chain: GPEPSTRCELSPINASHPVQALMESFTVLSGCASRGTTGLPREVHVLNLRSTDQGPGQRQREVTLHLNPIASVHTHHKPIVFLLNSPQPLVWHLKTERLAAGVPRLFLVSEGSVVQFPSGNFSLTAETEERNFPQENEHLLRWAQKEYGAVTSFTELKIARNIYIKVGEDQVFPPTCNIGKNFLSLNYLAEYLQPKAAEGCVLPSQPHEKEVHIIELITPSSNPYSAFQVDIIVDIRPAQEDPEVVKNLVLILKCKKSVNWVIKSFDVKGNLKVIAPNSIGFGKESERSMTMTKLVRDDIPSTQENLMKWALDNGYRPVTSYTMAPVANRFHLRLENNEEMRDEEVHTIPPELRILLDPDHPPALDNPLFPGEGSPNGGLPFPFPDIPRRGWKEGEDRIPRPKQPIVPSVQLLPDHREPEEVQGGVDIALSVKCDHEKMVVAVDKDSFQTNGYSGMELTLLDPSCKAKMNGTHFVLESPLNGCGTRHRRSTPDGVVYYNSIVVQAPSPGDSSGWPDGYEDLESGDNGFPGDGDEGETAPLSRAGVVVFNCSLRQLRNPSGFQGQLDGNATFNMELYNTDLFLVPSPGVFSVAENEHVYVEVSVTKADQDLGFAIQTCFLSPYSNPDRMSDYTIIENICPKDDSVKFYSSKRVHFPIPHAEVDKKRFSFLFKSVFNTSLLFLHCELTLCSRKKGSLKLPRCVTPDDACTSLDATMIWTMMQNKKTFTKPLAVVLQVDYKENVPSTKDSSPIPPPPPQIFHGLDTLTV
In turn, B1 registered a Kd of 511 pM, an off-rate constant (koff) of 0.000755 s⁻¹ and an association rate constant (kon) of 1.48e+06 M⁻¹ s⁻¹.
